Measurements: article PMC4118026
Where “and” joins values, the source holds several entries; their conditions need not be identical. Equal entries are not always repeated.

Molecular target: T1, apoptosis-associated speck-like protein containing a CARD (mouse (endogenous in primary cortical astrocytes)), Q9EPB4
T1 chain: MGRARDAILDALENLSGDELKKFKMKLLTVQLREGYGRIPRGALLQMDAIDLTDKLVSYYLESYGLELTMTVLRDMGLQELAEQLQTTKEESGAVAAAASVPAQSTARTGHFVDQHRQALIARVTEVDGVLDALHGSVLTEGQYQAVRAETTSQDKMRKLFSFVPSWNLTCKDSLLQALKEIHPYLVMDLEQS
Test: cross-linking; astrocytes treated with ATP, LPS or ethanol, lysed in PBS/Triton 0.5%; 8000 x g pellets cross-linked with 2 mM DSS for 30 min at room temperature; 12% SDS-PAGE, blot with anti-mouse ASC
Conditions: remark: other sources report otherwise

B1: apoptosis-associated speck-like protein containing a CARD, Q9EPB4 1-193 (natural protein)
chain: T1 chain
  stoichiometry N: 2 and 3
